Measurements from the DeepSol protein solubility set.

Experiment: soluble on expression in E. coli; label from the status in PepcDB or PDB records

Sequence | soluble on expression in E. coli
MSLKVGFDNQKYLKMQSEHIRERISKFDNKLYLEFGGKLFDDYHASRVLPGFEPDSKLKMLLELKDQAEIVIVISAIDIEKSKVRGDLGITYDSDVLRLIDAFQSKGLYVGSVTITQYSGQSSADLFKSKLEALGVKVYLHYIIPGYPNNISLILSEDGYGKNEFIQTTRPLVVITAPGPGSGKMATCLSQLYHEHKRGVRAGYAKFETFPIWNLSLKHPVNVAYEAATADLNDVNMIDPCHLEAYGVTAVNYNRDVEIFPVLKAIFLRIDEHCPYKSPTDMGVNMVGNCIIDDQACRDASKQEILRRYYQTLCNVINGTSDGDEVYKLELLLNQVSVSAEDRPVIKAANDLADLNKSPAVAMQLADESIITGKTSELLGASAAVLLNALKALAGIPHETHVISPLAIGPIQQLKTQYLGSSNPRLHTDEVLIALSISAKEDENARKAMEQLPHLKGCEVHTSVILSEVDRKVFHKLGVHLTSEPTYENKKLFHEGHHHHHH | soluble
MSLKVWGRGSSFNVQKVLWLVGELGLSHRHIPAGGDHGGLDEPSFLAMNPHGRVPVIDDGGVMVWESHAILRYLAARYGGSEWWPASPVDRAQADGWMDWAQTALQRDFLTGVFWGWYRTPEPERDNDAIRTALAACAKHFLLLDQILANRPFLGGDQPGLADIPCGTHLFRYYALEIDRPRTPNVEAWYARLQARPAYRKAVMIPFDEMKGRLAYEGHHHHHH | soluble
MSLKWAHPIPFPETGCVLVATEKLDGYRTFARTVVLLLRAGTRHPQEGPFGVVINRPLHKNIKHMKSTKTELATTFSECSLYFGGPLEASMFLLKTGDKTKIPGFEEVMPGLNFGTRNSLDEAAVLVKKGVLKPQEFRFFVGYAGWQLDQLREEIESDYWHVAACSSDLICGASSENLWEEILQLMGGQYSELSRKPKLDIEGHHHHHH | soluble
MSLKYEKIAFFRFFGRLNDFFRNSERIKTHRFTGFQTVKDRIEALGVPHVEVSLITLNGKPVGFDHMVEDGELFFVYPEFQNIEIPEDWLVTPRYIGEPRFVLDIHLGKLARLLRMLGFEAVFGEESDEKLCWMAVKKKAILLSRDTGLLKRKELVFGYYVRNTDPKEQLVEVVERYDLKKWMKPFTRCIECGVELEEVPKEAVKNRVPPKVYGFFNEFARCPVCGRIYWKGSHYDHMVEFIKSNINKGEGHHHHHH | soluble
MSLLIDKFGRPVTNLRISLTKECNLNCFYCHREGQQDGERTMTPEEIERIVRIASRLGIRNVKLTGGEPTVRPDIYEIIQRIRPYVVDLSMTTNGTTLYASAEKLKEAGLDRVNISLDTLDRKKYKMITGYDVLDQVLKGIRRATNLFYPVKLNMVVMRGINDDEIWDMIRFAGEVNAILQLIEIEVPREMENSQFFKDFFYPLKPLEEKFEKIAVEIRERKMHRRRKYFLPVDGKMVEVEVVRSMHNTTFCMNCTRLRLTADGYLKTCLLRKDDLIDILGPIRRGATDDELVKIFKRAVQLRKPYWINEGHHHHHH | soluble
MSLLIVQKYGGTSMGSIERIHNVAQRVLESVTLGHQVVVVVSAMSGETDRLLEFGKNFSHNPNKREMDRIVSVGELVSSAALSMALERYGHRAISLSGKEAGILTSSHFQNAVIQSIDTKRITELLEKNYIVVIAGFQGADIQGETTTLGRGGSDLSAVALAGALKAHLCEIYTDVDGVYTTDPRIEEKAQKIAQISYDEMLELASMGAKVLLNRSVELAKKLSVKLVTRNSFNHSEGTLIVAEKDFKGERMETPIVSGIALDKNQARVSMEGVEDRPGIAAEIFGALAEYRINVDMIVQTIGRDGKTDLDFTIVKTQIEETKQALKPFLAQMDSIDYDENIAKVSIVGVGMKSHSGVASIAFKALAKDNINIMMISTSEIKISVLIDIKYAELAVRTLHAVYQLDQEGHHHHHH | not soluble
MSLLKNVEVFWQNFLDKHELDMLMPDVWMFGDGSSEMGNRLGQLVVSGRKTATCSSLDIYKMEEEQLPKAGQYDIILDGQSQPLAIIRTTKVEIMPMNKVSESFAQAEGEGDLTLDYWYEEHARFFKEELAPYQLQFYPDMLLVCQSFEVVDLYTEKEEGGSHHHHHH | soluble
MSLLNIKFTDNAVDYLKRREILDKILILITDDGGGKYSIQGGSCSMGAHFSIIWLDKVDPDYPVKIANEQNVKIYTSDFDKTMLGPNMVMDYNAGSLSLSSDEGLLDGSVDIGNGAALLKANKNVQMGINRQCEGHHHHHH | soluble
MSLLRQRFVFDTTALTDSQAWESEGCTTLCEGMSAILHRVAQARLHLGISCYVPYPSVYNEIRDFVRNNNCDIAILGKIDTWLVKKTPDRYRVKIPSKIFYEYVDYMRSRINKGMNVSEEAIWEAVSRCLSISATGEGREQMREEIEREVVGSIIRKFREKYRAALRYGILDSAPDIDVLLLAKDLDAAVVSQDLGIQRWAEQLGLRFMEARAFPQMVREYMSFVPLHTEELEDRMVEGHHHHHH | soluble
MSLLSEENEFLFDLNEIPEKTVYSDDGDEFLFDLNKIPPREETVNSSDEDFADHLHRRNQATKRKKKLRKRPKVFRHIEKVISFSFYLVLRASSFLFLDLNWGLRMDTDPYQELRMDTDHMTYEQLLQLCNNMGYENSGVKASNIDRCLRNTKPSEFQSLADKICCICQDGFQKRAGVGKLNCGHNFHVNCVKPWILTKK | soluble
MSLLTPEQIAAAQKANIESLFGLTTKAFEGVEKLIELNLQVVKSTLAESQENVQRALSVKDAQELLALQASLTQPIAEKVLAYGRHVYEIASATQAEFAKVAEAQYEEQNRKVQALVDNVAKNAPAGSETAVAALKSAINAANTTYETVQK | not soluble
MSLLTQIKGEWVLGFADGNHRMLRDASVVYEGERIVHVGTEFDGVADRVIDARGCLVAPGFIDTHVHSGHRALHKLLADGGRPDLFGQPYMDVTIARDGTRIKGYPNYLSREEAAVDPGIALHAAFTVAELLRNGVTTFVELGGHVMVQEALWRECERLGVRGYLGAGYDSGRWAADDQGRLRRVPYPDGGDHLFEEAVAFIKRVQAAGNDLVNGILVPREVENCSVDILRRTVQAAQELGVPMATHAGYNVIEFYETVREHRMTPIELLHSVGMLGPRLNIGHANLISDSPRLNYSGGRDLALMGEHRVSISHCPINIVRRARVLDSWKKYREAGVNLTIGSDTYPRDMVMNMRTASYHGKVMSHDLTAASAAEVFEAATLGGARSLGRTDIGRLEPGARADVIAINVGRQDVLRYGPIWDPIRSLVECGVGDDVELVVTNGQVRMEQGRIVGVDLGALRAEAQQFADNVWRDLQDWDPLRRTAQAMCPPLFCPDCMEGHHHHHH | soluble
MSLLTVGIVDDNPRDLEKLELIVNNMENVELILKANSADEVYHSIQKTPVDLLITDIEMPGMSGYQLADFIQLNNMKTAVIFVTAKSGYAVHAFELNVHDYILKPFNPDRLIQSIDRFTEKKDAGRVTGRLFIRSDGDLVVVPKAEIIFLERTGRTTTIHTINETYETYQSLGELEGDIRESMFIRSHRSFIINLQYVKRFASYSKKSFVVIFEGSSGKALVTKEKLKYLQENYEGHHHHHH | not soluble
MSLLTVVHDQDSSNEDACGSRSLLDEIVRDGARQMLAAALAAEVAAYIDAHAGEVDENGHRLVVRNGYHREREVLTAAGAVTVIAPRVNDKRIDADTAERRRFSSAILPAWARKSPQMTEVLPLLYLHGLSTSDFGPALEQFLGSGAGLSATTITRLTAQWQDEAKAFGERDLSGTDYVYLWVDGIHLKVRLEQEKLCLLVMIGVRSDGRKELVGLADGYRESTESWADLLRSCRRRGMTAPVLAVGDGALGFWKAMREVFPATREQRCWFHKQANVLSCLPKSAHPGALAAMREIYNAEDIDHAQVAIKAFEVDYGAKYPKAVAKIVDDADVLLEFYRYPAEHWIHLRTTNPIESTFATVRLRTKVTKGPGSRAAGIAMAYKLIDAAQARWRAVNAPHLVALVRAGAVFHKGKLLEREGHHHHHH | not soluble
MSLMKQIKHFNQNYQELRQLGKVAIGRRAGKLKAGTIILFAVDSQGKILAARKMQGVTVLAKFHPLPQYVNEDIHYMDHYHPLVQKENKLTQQAMENAREIYLRVELGNYQETQPLTPLNGAKIQWQLWKNKVQTKLKGSVEEGHHHHHH | not soluble
MSLMSSKPIYKRVLLKASGEALMGDQGFGIDVAVADRIASDIAEARAMGVEVGVVVGGGNIFRGVAVASKGGDRVTGDHMGMLATVINALALATSLRKLSIDTVVLSAIAMPEICESFSQRAALHHLAQGRVVIFAGGTGNPFFTTDSAAALRAAEMGAEAIFKGTQVDGIYSADPKKDPTATRFDELTHSEVLGKGLAVMDIAAVALARENHIPIIVFSIHEKGGFAQILTGGGRKTIVHDKEGHHHHHH | soluble
MSLNADKFRKIDAHSHIQVLGYPFNVSITPEEFLSLMEAYNIEIAIISDVNNDNIAKIVKEYPDKLVGIYWPNPRDEKSINETEKFLEKYEFRGIKLHPLLNMFSPSDPRVEKIMKIAEEFNVHVQIHSGHPPTSLPWQIEELARKFPEVKIVMVHMGHGNAYYIQGAIEIAGRNENIYLETSGMPMPSKIAEAYEVAPRRVVFGIDLPCHHPVVEIAKVLISGLNEKGMKRVFYENAKVLLEGHHHHHH | not soluble
MSLNADTPLQLLGGLTAAEFLRDYWQRKPLLVRQAIPDFESPLSADELAGLSLEESVESRIVLEHGKTPWEMRRGPFQEEDYQHLPEQDWTLLVQAVDQFVPEVAQLLEQFRFLPSWRIDDVMISYAAPGGGVGPHFDNYDVFLLQGHGRRRWKVGQMCSSDSPLREHADLRILADFEQSDEWVLEPGDMLYLPPRLAHYGIAEDECMTYSIGFRAPSAAEVLTHFTDSLGQFLSDEERYTDAGLQPVGDDPHQIQRDALERLQGLIQEHMSDERLLLTWFGQFMTEPRYPELVAGEDIPEEELFGALEDGALLVRNPSARLAWSEIDIGLVLFASGQSVLLPGQLKELLKLVCSADALHLENLGQWLADDDARKLLAELVKQGSLEFADEEGGSHHHHHH | soluble
MSLNAEEKKGLQRAIEEITEIAKGFGLDFYPMRYEICPAEIIYTFGAYGMPTRFSHWSFGKQFHKMKLHYDLGLSKIYELVINSDPCYAFLLDSNSLIQNKLIVAHVLAHCDFFKNNCRFQNTKRDMVESMAATAERIKHYEQVHGIKEVESFLDAILSIQEHIDPSLVRPKLQWSVDDEEEEIEEAATPYDDLWSLDEKKPKKQVKKSKKPFPPRPEKDILLFIEEHSRELEPWQRDILTMMREEMLYFWPQLETKIMNEGWASYWHQRIIRELDLTSDEAIEFAKLNAGVVQPSKTGINPYYLGLKIFEDIEKRYNNPTEEMKKMGVQPDSGREKMFEVREIESDISFIRNYLTKELVMREDLYLFQKQGRDYKIIDKQWKSVRDQLVSMRVNGGFPYLTVNDGDYMKNNELYIKHWYEGIELDLKYLEKVLPYLFQLWGRSVHIESVLEDKEVMFSYDGKGVHRRYLEGHHHHHH | not soluble
MSLNAEIGIDSITLSIARVTPSTHWTFVEIVDEENRIGLGEATLTGRDSELLRAASDMFPAIVDMRVDDAASWLDTLELGTIARAAVASALSHAVTDLRARIRNRSIAELLGHPVRAFIPMYANINRRTHTRSPDSFAHSARSAVAAGFSAVKIAPFDGVTLYGSDAHAQPSLIDAALERIAAVRDAVGPAVDVMVDCHWRLNAHVARQVLASDVCDGLHWLECPLPETPDRLHELRALRSLANDRGIRLAGCEEAIRAEGFMPFVEAGAYDVMMPDVKYVGSVDEMLHVAQLLGRHDVEFSPHNPSGPVAHAVSMQICSLVPNFRRMEMQFDETPYFHTLTGATVPVPDNGGAQIARTSGIGMRLDRDALDPLTIRRLQFHRACRAGELVVTEGHHHHHH | soluble
